These results are taken from patent US12215133.

For the experiment, the target named is T1, GIP receptor.
T1 sequence (P48546 whole entry, species assumed, looked up): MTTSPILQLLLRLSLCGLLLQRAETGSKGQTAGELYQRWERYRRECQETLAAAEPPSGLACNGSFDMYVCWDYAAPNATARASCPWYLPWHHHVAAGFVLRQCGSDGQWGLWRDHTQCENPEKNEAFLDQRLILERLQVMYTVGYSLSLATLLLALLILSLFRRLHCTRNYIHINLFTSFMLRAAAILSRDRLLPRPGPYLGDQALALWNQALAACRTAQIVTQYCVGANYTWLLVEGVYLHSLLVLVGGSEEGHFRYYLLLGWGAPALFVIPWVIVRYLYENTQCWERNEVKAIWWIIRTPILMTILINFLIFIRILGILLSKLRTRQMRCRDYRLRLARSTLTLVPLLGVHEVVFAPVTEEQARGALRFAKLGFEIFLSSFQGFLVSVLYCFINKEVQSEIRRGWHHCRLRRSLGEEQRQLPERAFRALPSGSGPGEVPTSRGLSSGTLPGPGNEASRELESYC
In words: cell-based or functional assay.

Consider BG121 (LY3298176) (peptide), for which the cAMP experimental result of GIP receptor, EC50 amounted to 1.79 nM.
The figure for BGM134 (Semaglutide) (peptide) is over 50 nM.
